Measured values published in paper PMC10084705.

Target: SARS-CoV-2 main protease M^pro-C145A (SARS-CoV-2)
Assay: cryo-EM structure

## SARS-CoV-2 main protease M^pro-C145A (enzyme)
  stoichiometry N: 2
